The assay addresses T1, ASIC1a (human (endogenous in U251 MG, A172, A549)) (UniProt P78348).
T1 sequence: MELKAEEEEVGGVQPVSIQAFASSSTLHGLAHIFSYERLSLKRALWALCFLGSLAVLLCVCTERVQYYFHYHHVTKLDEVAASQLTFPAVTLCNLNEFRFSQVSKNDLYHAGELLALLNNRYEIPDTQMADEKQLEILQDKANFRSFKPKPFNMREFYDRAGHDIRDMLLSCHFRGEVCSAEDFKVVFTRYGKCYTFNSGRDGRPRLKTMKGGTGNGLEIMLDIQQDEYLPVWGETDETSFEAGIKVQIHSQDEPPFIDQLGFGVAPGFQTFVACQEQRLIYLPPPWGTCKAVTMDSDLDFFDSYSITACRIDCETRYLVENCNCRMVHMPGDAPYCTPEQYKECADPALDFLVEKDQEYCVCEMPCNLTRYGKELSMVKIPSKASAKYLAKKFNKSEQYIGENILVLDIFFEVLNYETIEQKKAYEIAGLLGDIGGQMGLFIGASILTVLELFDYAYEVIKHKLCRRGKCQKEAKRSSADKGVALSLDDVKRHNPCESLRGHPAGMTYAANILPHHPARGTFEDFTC

B1: recombinant mambalgin-2 (peptide)
chain: LKCFQHGKVVTCHRDMKFCYHNTGMPFRNLKLILQGCSSSCSETENNKCCSTDRCNK
The molecule B1 gave a growth of A172 glioma cells expressing the ASIC1a subunit, EC50 of 10 nM; a growth of A549 lung carcinoma cells expressing the ASIC1a subunit, EC50 of 8 nM; a growth of U251 MG glioma cells expressing the ASIC1a subunit, EC50 of 0.9 nM.
